The nanobody polyreactivity screen of Harvey et al. (2022)

assay: yeast display, Sf9 membrane polyspecificity reagent, FACS + sequencing; frameworks hold sequencing errors
Method in brief: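 Genes from sorted yeast were amplified by colony PCR, read by MiSeq 2 × 250 sequencing and filtered on CDR length. These cells carried a synthetic nanobody library in Saccharomyces cerevisiae BJ5465 and were sorted by FACS into low and high (top ~1%) gates on anti-HA and streptavidin fluorescence. Polyreactivity is labelled according to the gate of origin.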

Sequence | polyreactivity (PSR sort gate)
QVQLVESGGGLVQAGGSLRLSCAASGRIFRRYTMGWYRQAPGKERELVAAITWNGGRTYYADSVKGRFTISRDNAKNTVYLQMNSLKPEDTAVYYCAARRQGGYGYDYWGQGTQVTVSS | high polyreactivity
QVQLVESGGGLVQAGGSLRLSCAASGRIFRRYVMVWSRQAPGKERELVARIRIRDSNTYYADSVKGRFTISRDNAKNTVYLQMNSLKPEDTAVYYCAVVANYVYSKYDYWGQGTLVTVSS | high polyreactivity
QVQLVESGGGLVQAGGSLRLSCAASGRIFRSNAMGWYRQAPGKERELVAAINYRGDRTYYADSVKGRFTISRDNAKNTVYLQMYSLKPEDTAVYYCNARRYSIPVSAGGYDSWGQGTQVTVSS | high polyreactivity
QVQLVESGGGLVQAGGSLRLSCAASGRIFRSNAMGWYRQAPGKERELVATISRRGGSTYYADSVKGRFTISRDNAKNTVYLQMNSLKPEDTAVYFCNTRNSGSLDLYNTMDYWGQGTQVTVSS | high polyreactivity
QVQLVESGGGLVQAGGSLRLSCAASGRIFRSYAMGWYRQAPGKERELVAAITKSGGGTYYADTVKGRFTISRDNAKNTVYLQMNSMKPEDTAVYYCGARGHCGYYYWGQGTQVTVSS | high polyreactivity
QVQLVESGGGLVQAGGSLRLSCAASGRIFRTNAQGWYRQAPGKERELVAAITRGGTTNYADSVKGRFTISRDNAKNTVYLQMNSLKPEDTAVYYCATRLSGWRYYLARYDYWGQGTQVTVSS | low polyreactivity
QVQLVESGGGLVQAGGSLRLSCAASGRIFRTNTMGWYRQAPGKERELVAAITRGGSTYYADSVKGRFTISRDNAKNTVYLQMNSLKPEDTAVYYCAASRYYNSVHNGGDYWGQGTQVTVSS | high polyreactivity
QVQLVESGGGLVQAGGSLRLSCAASGRIFRVNAMGWYRQAPGKERELVAAISGRGGSTYYADSVKGRFTISRDNANNTVYLQMNSLKPEDTAVYYCAKKSFSYGYNSYDYWGQGTQVTVSS | high polyreactivity
QVQLVESGGGLVQAGGSLRLSCAASGRIFRVYAMGWYRPAPGKERELVAAITSGGTTYADSVKGRFTISRDNAKNTVYLQMYSLKPEDTAVYYCAARHAYPYRRGDFNYWGQGTQVTVSS | high polyreactivity
QVQLVESGGGLVQAGGSLRLSCAASGRIFRVYAMGWYRQAPGKERELVAAISSRGGRTYYADSVKGRFTISRDNAKNTVYLQMNSLKPEDTAVYYCAADGRSSSRATSRYDYWGQGTQVTVSS | high polyreactivity
QVQLVESGGGLVQAGGSLRLSCAASGRIFRVYAMGWYRQAPGKERELVAAITRGGSTYYADSVKGRFTISRDNAKNTVYLQMNSLKPEDTAVYYCAARTWHRYDYWGQGTQVTVSS | high polyreactivity
QVQLVESGGGLVQAGGSLRLSCAASGRIFRVYAMGWYRQAPGKETELVAAISRTGGSTYYADSVKGRFTISRDNAKNTVYLQMNSLKPEDTAVYYCAALVNGNFPTVDYWGQGTQVTVSS | high polyreactivity
QVQLVESGGGLVQAGGSLRLSCAASGRIFRVYTMGWYRQAPGKERELVAGITWDGGGTYYADSVKGRFTISRDNAKNTVYLQMNSLKPEDTAVYYCNAVVQGFYLAWLYTLDSWGQGTQVTVSS | low polyreactivity
QVQLVESGGGLVQAGGSLRLSCAASGRIFRWNAMGWYRQAPGKEREFVAAISWNGGRTYYADSVMGRFTISRDNAKNTVYLQMNSLKPEDPAVYYCAATHSVPDLLSGDYWGQGTQVTVSS | low polyreactivity
QVQLVESGGGLVQAGGSLRLSCAASGRIFRWNAMGWYRQAPGKERELVAAISASGGRTYYADSVKGRFTISRDNAKNTVYLQMISLKPEDTAVYYCAAGPVYYYVPIGYDYWGQGTQVTVSS | high polyreactivity
QVQLVESGGGLVQAGGSLRLSCAASGRIFRWSVRGWYRQAPGKERELVAAISYGSGSTYYADSVKGRFTISRDNAKNTVYLQMNSLKPEDTAVYYCAADSQAARYHAYDYWGQGTQVTVSS | high polyreactivity
QVQLVESGGGLVQAGGSLRLSCAASGRIFRWYAMGWYRQAPGKERELVASISRGGSTYYADSVKGRFTISRDNAKNTVYLQMNSLKPEDTAVYYCNVKYKYDRAYGEYDYWGQGTQVTVSS | high polyreactivity
QVQLVESGGGLVQAGGSLRLSCAASGRIFRWYGMGWYRQAPGKERELVAAITSGGSTHYADSVKGRFTISRDNAKNTVYLQMNSLKPEDTAVYYCAADPYHLQTRFSGLAEFYYWGQGTQVTVSS | low polyreactivity
QVQLVESGGGLVQAGGSLRLSCAASGRIFRWYGMGWYRQAPRKERELFAAISGRGGSTYYADSVKGRFTISRDIAKNTVYLQMNSLKPEDSGVYYCKKDPYYIYRPGSGQGYAFNYWGQGTQVTVSS | high polyreactivity
QVQLVESGGGLVQAGGSLRLSCAASGRIFRWYTMGWYRQAPGKEREFVAAITWSDTSTSYADSVKGRFTISRDNAKKTVYLQMNSLKPEDTAVYYCNAATRSSVTFGWYIEYDYWGQGTQVTVSS | low polyreactivity
QVQLVESGGGLVQAGGSLRLSCAASGRIFRWYTMGWYRQAPGKEREFVDAITWSDTSTSYADSVKGRFTISRDNAKNTVYLQMNSLKPEDTAVYYCNAATRSSVTFGWYIEYDYWGQGTQVTVSS | low polyreactivity
QVQLVESGGGLVQAGGSLRLSCAASGRIFRWYVMGWYRQAPGKERELVASISSGGITYYADSVKGRFTISRDNAKNTVYLQMNSLKPEDTAVYYCNARRQPYRTSGSEMGYWGQGTQVTVSS | high polyreactivity

Sequence | polyreactivity (PSR sort gate)
QVQLVESGGGLVQAGGSLRLSCAASGRIFRYNAMGWYRQAPGKERELVAAITGCGGSTYYADSVKGRFTISRDNAKNTVYLQMNSLKPEDTAVYYCNTYTYYSRMDYWGQGTQVTVSS | high polyreactivity
QVQLVESGGGLVQAGGSLRLSCAASGRIFRYNAMGWYRQAPGKERELVAAITQSGGNTYYADSVKGRFTISRDNAKNTVYLQMNSLKPEDTAVYYCAAATRQFAGQRYGYWGQGTQVTVSS | high polyreactivity
QVQLVESGGGLVQAGGSLRLSCAASGRIFRYNAMGWYRQAPGKERELVADINSGGITNYADSVKGRFTISRDNAKNTVYFQKNSLKPEDTAVYYCNTATNLSCGYDSWGQGTQVTVSS | low polyreactivity
QVQLVESGGGLVQAGGSLRLSCAASGRIFRYNAMGWYRQAPGKERELVASISSGTSTTYADSVKGRFTISRDYAKNTVYLQMNSLKPEDTAVYYCAAVPSYRGYRGGYSNLWYYYWGQGTQVTVSS | high polyreactivity
QVQLVESGGGLVQAGGSLRLSCAASGRIFRYNAMGWYRQAPGKERELVASITSGGSTKYADSVKGRFTISRDNAKNTVYLQMNSLKPEDTAVYYCAAQRATPWPKNDYWGQGTQVTVSS | high polyreactivity
QVQLVESGGGLVQAGGSLRLSCAASGRIFRYNAMGWYRQAPGKERELVATISRGGGSTYYADSVKGRFTISRDNAKNTVYLQMNSLKPEDTAVYYCAAVGYYLVKFDYWGQGTQVTVSS | high polyreactivity
QVQLVESGGGLVQAGGSLRLSCAASGRIFRYNTMGWYRQAPGKEREFVAAITQRGVNTYYADSVKGRFTISRDNAKNTVYLQLNSLKPEDTAVYYCNAKRYSYWIYRAYDYWGQGTQVTVSS | low polyreactivity
QVQLVESGGGLVQAGGSLRLSCAASGRIFRYNTMGWYRQAPGKERELVAAITYRGGSTYYADSVKGRFTISRDNAKNTVYLQMNSLKPEDTAVYYCAASPARYWYGGKEYDYWGQGTQVTVSS | high polyreactivity
QVQLVESGGGLVQAGGSLRLSCAASGRIFRYYAMGWSRQAPGKERELVAAITSDGRTYYADSVKGRVTISRDNAKNTVYLQMNSLKPEDTAVYYCAADHHSYRYGGYYYWGQGTQVTVAS | low polyreactivity
QVQLVESGGGLVQAGGSLRLSCAASGRIFRYYAMGWYIQAPGKERELVAAISGSGGSTYYADSVKGRFTISRDNAKNTVYLQMNSLKPEDTAVYYCNARYRIPSGEGDHWGQGTQVTVSS | low polyreactivity
QVQLVESGGGLVQAGGSLRLSCAASGRIFRYYAMGWYIQAPGKERELVAAITRGGSTNYADSVKGRFTISRDNAKNTVYLQMNSLKPEDTAVYYCAARRQGRSGNGSWGQGTQVTVSS | high polyreactivity
QVQLVESGGGLVQAGGSLRLSCAASGRIFRYYAMGWYRQAPGKERELVAAIRWTAGSTYYADSVKGRFTISRDNAKNTVYLQMNSLKPEDTAVYYCATDVWKYGRYEYWGQGTLVTVSS | low polyreactivity
QVQLVESGGGLVQAGGSLRLSCAASGRIFRYYAMGWYRQAPGKERELVAAISTSGDTTYYADSVKGRFTISRDNAKNTVYLQMNSLKPEDTAVYYCAKPIAPARNAYPAYDYWGQGTQVTVSS | high polyreactivity
QVQLVESGGGLVQAGGSLRLSCAASGRIFRYYAMGWYRQAPGKERELVAAISWSGGSTYYADSVKGRFTISRDNAKNTVYLQMNSLKPEDTAVYYCNAYIYRAVPYDYWGQGTQVTVSS | high polyreactivity
QVQLVESGGGLVQAGGSLRLSCAASGRIFRYYAMGWYRQAPGKERELVAAITSDGRTYYADSVKGRFTISRDNAKNTVYLQMNSLKPEDTAVYYCAADHHSYRYGGYYYWGQGTQVTVSS | low polyreactivity
QVQLVESGGGLVQAGGSLRLSCAASGRIFRYYAMGWYRQAPGKERELVAAITSGGNTYYADSVKGRFTISRDNAKNTVYLQMNSLKPVDTAVYYCADGRNLYHFYYWGQGTQVTVSS | high polyreactivity
QVQLVESGGGLVQAGGSLRLSCAASGRIFRYYAMGWYRQAPGKERELVAGITGSGTTNYADSVKGRFTISRDNAKNTVYLQMNSLKPEDTAVYYCNADRYTFWYRYERGYWGQGTQVTVSS | high polyreactivity
QVQLVESGGGLVQAGGSLRLSCAASGRIFRYYAMGWYRQAPGKERELVARISWSGGDTYYADSVKGRFTISRDNAKNTVYLQMNSLKPEDTAVYYCNAEAWYSVEYDYWGQGTQVTVSS | low polyreactivity
QVQLVESGGGLVQAGGSLRLSCAASGRIFRYYAMGWYRQAPGKERELVASINSGGSTYYADSVKGRFTISRDNAKNTVYLQLNSLKPEDTAVYYCAKRVGHSRHADNDYWGQGTQVTVSS | low polyreactivity
QVQLVESGGGLVQAGGSLRLSCAASGRIFRYYAMGWYRQAPGKERELVATISRSGGSTFYADSVKGRFTISRDNAKNTVYLQMKSLKPEDTAVYYCAADYYSYVVGRIYYWGQGTQVTVSS | high polyreactivity
QVQLVESGGGLVQAGGSLRLSCAASGRIFRYYAMGWYRQAPGKERELVAVISSRGGSTFYADSVKGRFTISRDNAKNTVYLQMNSLKPEDTAVYYCASRSLYVGYDYWGQGTQVTVSS | high polyreactivity
